Assays:
Assay in all cases: holdup assay
Design in all cases: key: below the threshold = too weak to quantify, mostly under pKd 3.1 to 4
APBA1_2, Q02410 = target: T1, APBA1_2, Q02410; conditions: plain residues with an end cap or a label only (N-terminal biotin on a linker: ttds)
T1 sequence (Q02410 742-832, limits assumed, looked up): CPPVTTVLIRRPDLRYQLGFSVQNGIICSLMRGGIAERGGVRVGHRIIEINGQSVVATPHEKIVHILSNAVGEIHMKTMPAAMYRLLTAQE

ARHGAP21, Q5T5U3 = target: T2, ARHGAP21, Q5T5U3; conditions: plain residues with an end cap or a label only (N-terminal biotin on a linker: ttds)
T2 sequence (Q5T5U3 45-169, limits assumed, looked up): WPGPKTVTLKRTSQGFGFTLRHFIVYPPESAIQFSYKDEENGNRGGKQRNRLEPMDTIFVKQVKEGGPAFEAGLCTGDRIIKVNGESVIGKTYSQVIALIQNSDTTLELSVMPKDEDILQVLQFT

ARHGEF11, O15085 = target: T3, ARHGEF11, O15085
T3 sequence (O15085 42-136, limits assumed, looked up): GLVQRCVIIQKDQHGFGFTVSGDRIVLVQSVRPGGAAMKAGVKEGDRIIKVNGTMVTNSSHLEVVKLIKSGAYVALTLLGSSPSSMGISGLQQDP

FRMPD3, Q5JV73 = conditions: plain residues with an end cap or a label only (N-terminal biotin on a linker: ttds)
GIPC2, Q8TF65 = conditions: plain residues with an end cap or a label only (N-terminal biotin on a linker: ttds)
GRID2IP_2, A4D2P6 = conditions: plain residues with an end cap or a label only (N-terminal biotin on a linker: ttds)
Inadl_1, Q8NI35 = conditions: plain residues with an end cap or a label only (N-terminal biotin on a linker: ttds)
LRRC7, Q96NW7 = target: T4, LRRC7, Q96NW7; conditions: plain residues with an end cap or a label only (N-terminal biotin on a linker: ttds)
T4 sequence (Q96NW7 1440-1537, limits assumed, looked up): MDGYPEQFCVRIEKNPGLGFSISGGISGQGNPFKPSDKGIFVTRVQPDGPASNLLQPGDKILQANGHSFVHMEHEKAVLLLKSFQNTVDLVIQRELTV

PARD3B_1, Q8TEW8 = target: T5, PARD3B_1, Q8TEW8; conditions: plain residues with an end cap or a label only (N-terminal biotin on a linker: ttds)
T5 sequence (Q8TEW8 196-299, limits assumed, looked up): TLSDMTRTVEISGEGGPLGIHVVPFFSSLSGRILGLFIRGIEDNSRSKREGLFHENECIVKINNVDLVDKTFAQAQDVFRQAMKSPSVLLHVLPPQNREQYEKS

PDZD2_2, O15018 = target: T6, PDZD2_2, O15018; conditions: plain residues with an end cap or a label only (N-terminal biotin on a linker: ttds)
T6 sequence (O15018 329-429, limits assumed, looked up): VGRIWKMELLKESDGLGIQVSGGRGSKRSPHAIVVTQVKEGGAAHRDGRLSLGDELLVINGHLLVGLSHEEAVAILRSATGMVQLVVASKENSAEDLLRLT

SNTA1, Q13424 = target: T7, SNTA1, Q13424
T7 sequence (Q13424 82-180, limits assumed, looked up): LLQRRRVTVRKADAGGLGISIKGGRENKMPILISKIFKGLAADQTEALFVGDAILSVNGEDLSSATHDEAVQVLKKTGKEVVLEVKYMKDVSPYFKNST

SYNJ2BP, P57105 = target: T8, SYNJ2BP, P57105; conditions: plain residues with an end cap or a label only (N-terminal biotin on a linker: ttds)
T8 sequence (P57105 8-110, limits assumed, looked up): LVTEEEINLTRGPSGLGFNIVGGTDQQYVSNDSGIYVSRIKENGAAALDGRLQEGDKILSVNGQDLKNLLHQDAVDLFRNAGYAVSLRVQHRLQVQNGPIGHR

APBA2_1, Q99767 = target: T9, APBA2_1, Q99767; conditions: plain residues with an end cap or a label only (N-terminal biotin on a linker: ado-ado)
T9 sequence (Q99767 563-664, limits assumed, looked up): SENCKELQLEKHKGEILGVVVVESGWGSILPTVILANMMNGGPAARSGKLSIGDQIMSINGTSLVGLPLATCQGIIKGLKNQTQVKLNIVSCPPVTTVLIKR

ARHGEF12, Q9NZN5-2 = conditions: plain residues with an end cap or a label only (N-terminal biotin on a linker: ado-ado)
CASK, O14936 = conditions: plain residues with an end cap or a label only (N-terminal biotin on a linker: ado-ado)
DLG1_2, Q12959 = conditions: plain residues with an end cap or a label only (N-terminal biotin on a linker: ado-ado)
DLG1_3, Q12959 = conditions: plain residues with an end cap or a label only (N-terminal biotin on a linker: ado-ado)
DLG2_2, Q15700 = conditions: plain residues with an end cap or a label only (N-terminal biotin on a linker: ado-ado)
DLG3_1, Q92796 = target: T10, DLG3_1, Q92796; conditions: plain residues with an end cap or a label only (N-terminal biotin on a linker: ado-ado)
T10 sequence (Q92796 125-227, limits assumed, looked up): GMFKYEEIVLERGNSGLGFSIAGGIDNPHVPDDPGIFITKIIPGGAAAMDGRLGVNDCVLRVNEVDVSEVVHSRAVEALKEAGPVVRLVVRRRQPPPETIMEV

DLG3_3, Q92796 = target: T11, DLG3_3, Q92796; conditions: plain residues with an end cap or a label only (N-terminal biotin on a linker: ado-ado)
T11 sequence (Q92796 374-475, limits assumed, looked up): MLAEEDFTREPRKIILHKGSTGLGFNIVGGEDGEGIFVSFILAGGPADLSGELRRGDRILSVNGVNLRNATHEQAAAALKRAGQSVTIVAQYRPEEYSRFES

DLG4_1, P78352 = conditions: plain residues with an end cap or a label only (N-terminal biotin on a linker: ado-ado)
DLG4_2, P78352 = conditions: plain residues with an end cap or a label only (N-terminal biotin on a linker: ado-ado)
FRMPD2_1, Q68DX3 = conditions: plain residues with an end cap or a label only (N-terminal biotin on a linker: ado-ado)
GRIP2_5, Q9C0E4 = conditions: plain residues with an end cap or a label only (N-terminal biotin on a linker: ado-ado)
GRIP2_6, Q9C0E4 = conditions: plain residues with an end cap or a label only (N-terminal biotin on a linker: ado-ado)
HTRA2, O43464 = conditions: plain residues with an end cap or a label only (N-terminal biotin on a linker: ado-ado)
IL16_4, Q14005 = conditions: plain residues with an end cap or a label only (N-terminal biotin on a linker: ado-ado)
Inadl_4, Q8NI35 = conditions: plain residues with an end cap or a label only (N-terminal biotin on a linker: ado-ado)
Inadl_8, Q8NI35 = conditions: plain residues with an end cap or a label only (N-terminal biotin on a linker: ado-ado)
Inadl_9, Q8NI35 = conditions: plain residues with an end cap or a label only (N-terminal biotin on a linker: ado-ado)
MAGI2_2, Q86UL8 = conditions: plain residues with an end cap or a label only (N-terminal biotin on a linker: ado-ado)
MAGI2_4, Q86UL8 = conditions: plain residues with an end cap or a label only (N-terminal biotin on a linker: ado-ado)
MAGI3_2, Q5TCQ9 = conditions: plain residues with an end cap or a label only (N-terminal biotin on a linker: ado-ado)
MAST2, Q6P0Q8 = conditions: plain residues with an end cap or a label only (N-terminal biotin on a linker: ado-ado)
MPDZ_10, O75970 = target: T12, MPDZ_10, O75970; conditions: plain residues with an end cap or a label only (N-terminal biotin on a linker: ado-ado)
T12 sequence (O75970 1624-1722, limits assumed, looked up): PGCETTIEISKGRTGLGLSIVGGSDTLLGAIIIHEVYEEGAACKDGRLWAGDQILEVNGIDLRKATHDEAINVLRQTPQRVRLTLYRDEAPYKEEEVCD

NHERF3_3, Q5T2W1 = target: T13, NHERF3_3, Q5T2W1; conditions: plain residues with an end cap or a label only (N-terminal biotin on a linker: ado-ado)
T13 sequence (Q5T2W1 238-333, limits assumed, looked up): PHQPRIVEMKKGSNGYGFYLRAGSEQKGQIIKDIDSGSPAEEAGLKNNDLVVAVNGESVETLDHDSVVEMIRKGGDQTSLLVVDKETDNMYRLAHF

NHERF4_1, Q86UT5-2 = conditions: plain residues with an end cap or a label only (N-terminal biotin on a linker: ado-ado)
NHERF4_4, Q86UT5 = conditions: plain residues with an end cap or a label only (N-terminal biotin on a linker: ado-ado)
PDZRN4_1, Q6ZMN7 = conditions: plain residues with an end cap or a label only (N-terminal biotin on a linker: ado-ado)
PTPN3, P26045 = conditions: plain residues with an end cap or a label only (N-terminal biotin on a linker: ado-ado)
SHANK1, Q9Y566 = target: T14, SHANK1, Q9Y566; conditions: plain residues with an end cap or a label only (N-terminal biotin on a linker: ado-ado)
T14 sequence (Q9Y566 658-767, limits assumed, looked up): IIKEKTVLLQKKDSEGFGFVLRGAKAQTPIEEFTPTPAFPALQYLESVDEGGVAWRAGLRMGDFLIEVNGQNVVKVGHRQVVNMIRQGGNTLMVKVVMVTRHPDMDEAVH

SNTG1, Q9NSN8 = target: T15, SNTG1, Q9NSN8; conditions: plain residues with an end cap or a label only (N-terminal biotin on a linker: ado-ado)
T15 sequence (Q9NSN8 52-150, limits assumed, looked up): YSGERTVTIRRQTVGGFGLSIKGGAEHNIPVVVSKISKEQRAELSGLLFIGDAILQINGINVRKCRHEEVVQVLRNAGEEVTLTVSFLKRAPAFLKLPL

SNX27, Q96L92 = conditions: plain residues with an end cap or a label only (N-terminal biotin on a linker: ado-ado)
TIAM2, Q8IVF5 = target: T16, TIAM2, Q8IVF5; conditions: plain residues with an end cap or a label only (N-terminal biotin on a linker: ado-ado)
T16 sequence (Q8IVF5 885-986, limits assumed, looked up): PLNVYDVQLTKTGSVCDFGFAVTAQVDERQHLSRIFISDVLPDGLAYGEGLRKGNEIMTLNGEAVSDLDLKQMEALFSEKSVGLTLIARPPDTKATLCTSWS

TJP1_2, Q07157 = conditions: plain residues with an end cap or a label only (N-terminal biotin on a linker: ado-ado)
TJP1_3, Q07157 = conditions: plain residues with an end cap or a label only (N-terminal biotin on a linker: ado-ado)
TX1BP3, O14907 = target: T17, TX1BP3, O14907; conditions: plain residues with an end cap or a label only (N-terminal biotin on a linker: ado-ado)
T17 sequence (O14907 10-122, limits assumed, looked up): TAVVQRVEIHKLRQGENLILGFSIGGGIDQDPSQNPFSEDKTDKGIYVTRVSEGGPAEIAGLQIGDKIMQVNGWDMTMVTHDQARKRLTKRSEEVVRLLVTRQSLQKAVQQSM

[1] = plain residues with an end cap or a label only (N-terminal biotin on a linker: ttds)
[2] = plain residues with an end cap or a label only (N-terminal biotin on a linker: ado-ado)

Sequence of TJP1_3, Q07157 (Q07157 416-512): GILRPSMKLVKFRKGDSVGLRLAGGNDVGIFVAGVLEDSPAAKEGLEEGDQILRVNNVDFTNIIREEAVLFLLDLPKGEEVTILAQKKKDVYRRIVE
Sequence of NHERF4_4, Q86UT5 (Q86UT5 464-550): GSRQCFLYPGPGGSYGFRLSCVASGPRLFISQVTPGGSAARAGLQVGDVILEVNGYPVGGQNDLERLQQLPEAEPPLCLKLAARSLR
Sequence of Inadl_9, Q8NI35 (Q8NI35 1530-1615): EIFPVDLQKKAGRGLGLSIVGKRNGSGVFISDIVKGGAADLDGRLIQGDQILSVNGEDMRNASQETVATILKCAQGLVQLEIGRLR
Sequence of PTPN3, P26045 (P26045 505-587): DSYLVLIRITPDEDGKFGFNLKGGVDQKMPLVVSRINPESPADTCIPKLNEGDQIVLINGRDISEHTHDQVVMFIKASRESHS
Sequence of FRMPD3, Q5JV73 (Q5JV73 12-100): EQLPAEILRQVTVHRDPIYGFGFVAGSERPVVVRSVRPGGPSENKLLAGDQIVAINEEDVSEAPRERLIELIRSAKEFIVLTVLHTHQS
Sequence of DLG4_2, P78352 (P78352 155-259): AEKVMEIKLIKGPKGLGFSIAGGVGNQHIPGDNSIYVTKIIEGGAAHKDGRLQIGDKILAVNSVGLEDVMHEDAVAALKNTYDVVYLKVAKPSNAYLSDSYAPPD
Sequence of HTRA2, O43464 (O43464 355-458): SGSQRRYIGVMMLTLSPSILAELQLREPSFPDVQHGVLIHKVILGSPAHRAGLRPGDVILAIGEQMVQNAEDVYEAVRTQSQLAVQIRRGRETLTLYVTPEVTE
Sequence of MAGI3_2, Q5TCQ9 (Q5TCQ9 398-503): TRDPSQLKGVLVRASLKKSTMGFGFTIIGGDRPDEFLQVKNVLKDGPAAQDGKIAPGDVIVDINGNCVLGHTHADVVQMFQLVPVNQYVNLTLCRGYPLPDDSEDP
Sequence of MAST2, Q6P0Q8 (Q6P0Q8 1099-1202): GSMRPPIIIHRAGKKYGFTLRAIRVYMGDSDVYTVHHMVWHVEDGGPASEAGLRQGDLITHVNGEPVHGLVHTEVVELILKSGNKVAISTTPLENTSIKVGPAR
Sequence of FRMPD2_1, Q68DX3 (Q68DX3 770-861): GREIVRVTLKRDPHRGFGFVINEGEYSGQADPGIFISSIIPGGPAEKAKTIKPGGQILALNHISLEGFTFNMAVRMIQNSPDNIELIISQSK
Sequence of NHERF4_1, Q86UT5-2 (Q86UT5 other isoform, or with tags, fused parts or gaps): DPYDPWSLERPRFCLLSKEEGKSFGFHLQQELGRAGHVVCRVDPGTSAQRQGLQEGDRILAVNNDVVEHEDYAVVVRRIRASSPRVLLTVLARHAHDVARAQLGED
Sequence of Inadl_1, Q8NI35 (Q8NI35 113-229): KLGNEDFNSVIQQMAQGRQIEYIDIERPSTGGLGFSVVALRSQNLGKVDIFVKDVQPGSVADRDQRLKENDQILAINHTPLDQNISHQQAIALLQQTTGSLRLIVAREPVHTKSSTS
Sequence of IL16_4, Q14005 (Q14005 1229-1329): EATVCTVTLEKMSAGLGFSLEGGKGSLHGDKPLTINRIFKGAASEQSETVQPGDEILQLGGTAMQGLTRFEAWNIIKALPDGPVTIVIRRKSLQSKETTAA
Sequence of DLG2_2, Q15700 (Q15700 189-283): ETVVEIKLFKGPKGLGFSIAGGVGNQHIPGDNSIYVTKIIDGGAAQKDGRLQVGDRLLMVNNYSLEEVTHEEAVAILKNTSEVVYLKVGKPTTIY
Sequence of Inadl_4, Q8NI35 (Q8NI35 547-651): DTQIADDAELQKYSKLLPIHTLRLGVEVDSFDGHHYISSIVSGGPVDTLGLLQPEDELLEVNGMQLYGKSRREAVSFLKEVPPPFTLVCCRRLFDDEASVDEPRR
Sequence of GRID2IP_2, A4D2P6 (A4D2P6 272-370): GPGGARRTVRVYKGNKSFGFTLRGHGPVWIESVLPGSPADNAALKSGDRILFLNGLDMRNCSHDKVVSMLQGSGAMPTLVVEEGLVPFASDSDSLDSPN
Sequence of CASK, O14936 (O14936 487-570): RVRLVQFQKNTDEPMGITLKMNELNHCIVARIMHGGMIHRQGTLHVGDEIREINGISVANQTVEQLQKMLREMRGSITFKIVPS
Sequence of ARHGEF12, Q9NZN5-2 (Q9NZN5 other isoform, or with tags, fused parts or gaps): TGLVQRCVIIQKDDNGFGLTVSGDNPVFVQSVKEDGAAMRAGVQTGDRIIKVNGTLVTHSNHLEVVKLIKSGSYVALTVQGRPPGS
Sequence of DLG4_1, P78352 (P78352 62-152): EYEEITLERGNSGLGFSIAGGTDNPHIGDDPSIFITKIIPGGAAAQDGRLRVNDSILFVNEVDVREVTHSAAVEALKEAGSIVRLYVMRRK
Sequence of GRIP2_5, Q9C0E4 (Q9C0E4 544-642): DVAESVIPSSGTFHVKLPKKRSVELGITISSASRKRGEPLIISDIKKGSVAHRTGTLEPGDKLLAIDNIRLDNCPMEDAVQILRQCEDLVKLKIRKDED
Sequence of Inadl_8, Q8NI35 (Q8NI35 1425-1530): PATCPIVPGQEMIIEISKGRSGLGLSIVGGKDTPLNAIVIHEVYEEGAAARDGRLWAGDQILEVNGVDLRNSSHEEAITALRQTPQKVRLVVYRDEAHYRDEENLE
Sequence of MAGI2_4, Q86UL8 (Q86UL8 772-865): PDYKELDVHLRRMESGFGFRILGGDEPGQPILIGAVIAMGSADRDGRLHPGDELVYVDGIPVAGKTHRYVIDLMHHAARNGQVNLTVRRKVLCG
Sequence of DLG1_3, Q12959 (Q12959 457-571): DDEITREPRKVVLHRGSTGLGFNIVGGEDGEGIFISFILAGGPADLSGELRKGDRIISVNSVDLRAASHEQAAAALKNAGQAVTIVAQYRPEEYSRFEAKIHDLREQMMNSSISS
Sequence of GIPC2, Q8TF65 (Q8TF65 112-203): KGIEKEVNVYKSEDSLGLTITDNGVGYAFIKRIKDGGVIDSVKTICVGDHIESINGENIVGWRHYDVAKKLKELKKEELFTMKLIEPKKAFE
Sequence of MAGI2_2, Q86UL8 (Q86UL8 410-522): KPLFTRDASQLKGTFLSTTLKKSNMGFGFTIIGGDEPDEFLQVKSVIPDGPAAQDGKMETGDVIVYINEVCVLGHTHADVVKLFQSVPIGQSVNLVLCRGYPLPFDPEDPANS
Sequence of DLG1_2, Q12959 (Q12959 314-412): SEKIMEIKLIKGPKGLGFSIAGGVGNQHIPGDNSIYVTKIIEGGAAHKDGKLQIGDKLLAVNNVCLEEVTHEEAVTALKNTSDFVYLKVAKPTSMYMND
Sequence of GRIP2_6, Q9C0E4 (Q9C0E4 648-740): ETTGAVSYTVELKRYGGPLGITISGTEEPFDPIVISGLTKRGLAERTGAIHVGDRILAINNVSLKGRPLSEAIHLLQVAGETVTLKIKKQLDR
Sequence of PDZRN4_1, Q6ZMN7 (Q6ZMN7 213-318): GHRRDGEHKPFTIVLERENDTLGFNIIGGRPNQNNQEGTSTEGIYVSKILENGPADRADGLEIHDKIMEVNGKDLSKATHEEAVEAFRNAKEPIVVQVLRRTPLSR
Sequence of TJP1_2, Q07157 (Q07157 181-274): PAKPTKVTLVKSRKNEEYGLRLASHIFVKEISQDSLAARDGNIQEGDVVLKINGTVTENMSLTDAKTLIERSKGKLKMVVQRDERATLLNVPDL

NDPAWDETNL [ARHGEF7, Q14155]
pKd (APBA1_2, Q02410): 3.5
pKd (ARHGAP21, Q5T5U3): 3.82
pKd (ARHGEF11, O15085; [1]): 3.69
pKd (FRMPD3, Q5JV73): 3.65
pKd (GIPC2, Q8TF65): 3.61
pKd (GRID2IP_2, A4D2P6): 3.63
pKd (Inadl_1, Q8NI35): 3.51
pKd (LRRC7, Q96NW7): 3.49
pKd (PARD3B_1, Q8TEW8): 3.54
pKd (PDZD2_2, O15018): 3.82
pKd (SNTA1, Q13424; [1]): 3.88
pKd (SYNJ2BP, P57105): 3.8

KSGKQTMLVV [TRIM29, Q14134]
pKd (APBA2_1, Q99767): 3.5
pKd (ARHGEF11, O15085; [2]): 3.89
pKd (ARHGEF12, Q9NZN5-2): 3.68
pKd (CASK, O14936): 3.48
pKd (DLG1_2, Q12959): 3.67
pKd (DLG1_3, Q12959): 3.69
pKd (DLG2_2, Q15700): 3.48
pKd (DLG3_1, Q92796): 3.63
pKd (DLG3_3, Q92796): 3.81
pKd (DLG4_1, P78352): 3.56
pKd (DLG4_2, P78352): 3.79
pKd (FRMPD2_1, Q68DX3): 3.47
pKd (GRIP2_5, Q9C0E4): 3.59
pKd (GRIP2_6, Q9C0E4): 3.55
pKd (HTRA2, O43464): 3.68
pKd (IL16_4, Q14005): 3.65
pKd (Inadl_4, Q8NI35): 3.49
pKd (Inadl_8, Q8NI35): 3.69
pKd (Inadl_9, Q8NI35): 3.49
pKd (MAGI2_2, Q86UL8): 3.51
pKd (MAGI2_4, Q86UL8): 3.55
pKd (MAGI3_2, Q5TCQ9): 3.5
pKd (MAST2, Q6P0Q8): 3.62
pKd (MPDZ_10, O75970): 3.48
pKd (NHERF3_3, Q5T2W1): 3.75
pKd (NHERF4_1, Q86UT5-2): 3.6
pKd (NHERF4_4, Q86UT5): 3.8
pKd (PDZRN4_1, Q6ZMN7): 3.68
pKd (PTPN3, P26045): 3.71
pKd (SHANK1, Q9Y566): 3.52
pKd (SNTA1, Q13424; [2]): 3.49
pKd (SNTG1, Q9NSN8): 3.5
pKd (SNX27, Q96L92): 3.8
pKd (TIAM2, Q8IVF5): 3.64
pKd (TJP1_2, Q07157): 3.88
pKd (TJP1_3, Q07157): 3.61
pKd (TX1BP3, O14907): 3.88
